# Measurements taken from PMC8092228 (mBio, 2021).
# Target: LOV-PAS-HK construct of Brucella abortus LOV-HK (residues 15 to 489), called the full-length protein (Brucella abortus)
# Assay: SEC with static light scattering (SEC-SLS)
# LOV-PAS-HK construct of Brucella abortus LOV-HK (residues 15 to 489), called the full-length protein (enzyme), sequence (A9MBM8 15-489 limits assumed): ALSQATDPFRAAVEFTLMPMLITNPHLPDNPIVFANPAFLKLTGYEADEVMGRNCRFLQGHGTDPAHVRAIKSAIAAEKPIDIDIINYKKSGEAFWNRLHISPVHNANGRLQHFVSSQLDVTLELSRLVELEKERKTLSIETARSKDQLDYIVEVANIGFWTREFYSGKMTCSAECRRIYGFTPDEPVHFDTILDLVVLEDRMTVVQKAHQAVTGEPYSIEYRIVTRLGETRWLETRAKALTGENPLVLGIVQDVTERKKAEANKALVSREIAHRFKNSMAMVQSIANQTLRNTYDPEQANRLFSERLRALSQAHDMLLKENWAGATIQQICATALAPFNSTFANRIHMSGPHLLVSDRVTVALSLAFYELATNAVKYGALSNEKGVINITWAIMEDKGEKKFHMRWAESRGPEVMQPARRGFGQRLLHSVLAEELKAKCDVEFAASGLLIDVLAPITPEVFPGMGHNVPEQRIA
substance,measurement,value
"LOV-PAS-HK construct of Brucella abortus LOV-HK (residues 15 to 489), called the full-length protein (enzyme)",stoichiometry N,2
